Source: US20220119534A1 (DRAGONFLY THERAPEUTICS, published 2022)
Substitutions are numbered along the chain they refer to. Names and notes keep the numbering of the source. Values joined by “and” are separate entries in the source; they are usually repeats but may differ in a detail not shown here. Equal entries are not always repeated.

Columns and labels:
mFc-hNKG2D [1] = biological target: T1, mFc-hNKG2D (human, UniProt P26718 73-216); experiment: SPR Biacore 8K 37 C; mFc-hNKG2D captured on anti-mFc chip, TriNKET as analyte; steady state affinity fit
T1 construct: extracellular domain; Made in house (Dragonfly Tx); the order of tag and ECD follows the name mFc-hNKG2D; also called mFc-tagged human NKG2D; not shown: mouse Fc tag
T1 sequence (looked up): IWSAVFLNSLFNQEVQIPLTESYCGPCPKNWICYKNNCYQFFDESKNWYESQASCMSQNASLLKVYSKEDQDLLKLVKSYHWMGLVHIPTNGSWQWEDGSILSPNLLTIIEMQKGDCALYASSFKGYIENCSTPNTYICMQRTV

mFc-hNKG2D [2] = biological target: T1, mFc-hNKG2D; experiment: SPR Biacore 8K 37 C; mFc-hNKG2D captured on anti-mFc chip, TriNKET as analyte; steady state fit; after 4 wks 40 C in CST pH 7.0, n=3
Human CD16a V158 = biological target: T2, Human CD16a V158 (human, UniProt P08637 17-208, biotinylated); experiment: SPR, summary of FcγR affinities
T2 construct: Bought recombinant receptor; also called hCD16a (V158); hFcγRIIIa V158

Human CD16a F158 = biological target: T3, Human CD16a F158 (human, UniProt P08637 17-208, biotinylated); experiment: SPR, summary of FcγR affinities
T3 construct: Bought recombinant receptor; also called hFcγRIIIa F158

Cynomolgus CD16 = biological target: T4, Cynomolgus CD16 (cynomolgus monkey, UniProt Q8SPW2 17-208, biotinylated); experiment: SPR, summary of FcγR affinities
T4 construct: Bought recombinant receptor; also called cFcγRIII; Cynomolgus FcγRIII

Cynomolgus CD64 = biological target: T5, Cynomolgus CD64 (cynomolgus monkey, UniProt A0A2K5U901 33-309, Probably biotinylated for capture, as in the sister examples (p-1094).); experiment: SPR, summary of FcγR affinities
T5 construct: Bought recombinant receptor; also called cFcγRI; Cynomolgus CD64 (FcγRI); not shown: The vendor's biotinylation and purification tag

Human CD32a R131 = biological target: T6, Human CD32a R131 (human, UniProt P12318 36-218, limits assumed, biotinylated); experiment: SPR, summary of FcγR affinities
T6 construct: Bought recombinant receptor; also called hFcγRIIa R131
T6 sequence (looked up): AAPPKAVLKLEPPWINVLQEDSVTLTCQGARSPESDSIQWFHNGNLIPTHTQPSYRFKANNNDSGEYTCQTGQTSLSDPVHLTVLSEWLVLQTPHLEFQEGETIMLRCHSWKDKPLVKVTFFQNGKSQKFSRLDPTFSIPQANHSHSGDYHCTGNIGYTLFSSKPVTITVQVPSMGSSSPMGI

Human CD32b = biological target: T7, Human CD32b (human, UniProt P31994 46-217, limits assumed, biotinylated); experiment: SPR, summary of FcγR affinities
T7 construct: Bought recombinant receptor; also called hFcγRIIb
T7 sequence (looked up): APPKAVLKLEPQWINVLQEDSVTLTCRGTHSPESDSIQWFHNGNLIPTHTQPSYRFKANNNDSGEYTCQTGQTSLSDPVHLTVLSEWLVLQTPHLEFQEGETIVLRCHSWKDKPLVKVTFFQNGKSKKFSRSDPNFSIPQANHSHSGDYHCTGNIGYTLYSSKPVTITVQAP

Human CD16b = biological target: T8, Human CD16b (human, UniProt O75015 17-200, limits assumed, biotinylated); experiment: SPR, summary of FcγR affinities
T8 construct: Bought recombinant receptor; also called hFcγRIIIb

[3] = biological target: T9, Human CLEC12A expressed on cells (Ba/F3-hCLEC12A, PL21, HL60) (human, UniProt Q5QGZ9 1-265); experiment: cell-based or functional assay
T9 sequence: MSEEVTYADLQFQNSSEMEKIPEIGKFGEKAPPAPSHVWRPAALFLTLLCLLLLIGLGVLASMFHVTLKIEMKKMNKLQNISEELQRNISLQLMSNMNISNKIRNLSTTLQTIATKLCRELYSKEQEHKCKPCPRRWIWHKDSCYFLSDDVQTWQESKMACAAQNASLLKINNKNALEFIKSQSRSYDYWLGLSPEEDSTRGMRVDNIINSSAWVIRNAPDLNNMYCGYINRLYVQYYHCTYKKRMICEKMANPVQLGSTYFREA

[4] = biological target: T10, Human CLEC12A-His (recombinant, K244 WT) (human, UniProt Q5QGZ9 65-265); experiment: SPR 37C, two-state fit, average
T10 construct: Made in house (Dragonfly Tx); also called hCLEC12A; hCLEC12A-His; not shown: His tag
T10 sequence: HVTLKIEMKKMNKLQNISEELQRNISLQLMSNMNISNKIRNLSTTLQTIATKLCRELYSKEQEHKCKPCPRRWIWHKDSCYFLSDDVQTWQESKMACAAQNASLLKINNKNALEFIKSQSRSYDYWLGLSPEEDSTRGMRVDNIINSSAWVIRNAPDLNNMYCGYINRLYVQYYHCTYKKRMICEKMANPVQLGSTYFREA

[5] = biological target: T11, mFc-hNKG2D (recombinant mFc-tagged human NKG2D dimer) (human, UniProt P26718 73-216); experiment: SPR; after pH 8, 40C, 2 wks (n = 2)
T11 construct: extracellular domain; Made in house; not shown: mouse Fc tag
T11 sequence (looked up): T1 sequence (looked up)

[6] = biological target: T10, Human CLEC12A-His (recombinant, K244 WT); experiment: SPR, two-state fit; after forced oxidation
[7] = biological target: T10, Human CLEC12A-His (recombinant, K244 WT); experiment: SPR, two-state fit (ka1); after low pH hold
[8] = biological target: T12, recombinant human CLEC12A-His (human, UniProt Q5QGZ9 65-265); experiment: SPR 37C
T12 construct: also called hCLEC12A-His; hCLEC12A
T12 sequence: T10 sequence

recombinant human CD16b = biological target: T13, recombinant human CD16b (human, UniProt O75015 17-200, limits assumed, biotinylated); experiment: SPR 25C, steady state, average
T13 construct: also called FcγRIIIb
T13 sequence (O75015 17-200 limits assumed): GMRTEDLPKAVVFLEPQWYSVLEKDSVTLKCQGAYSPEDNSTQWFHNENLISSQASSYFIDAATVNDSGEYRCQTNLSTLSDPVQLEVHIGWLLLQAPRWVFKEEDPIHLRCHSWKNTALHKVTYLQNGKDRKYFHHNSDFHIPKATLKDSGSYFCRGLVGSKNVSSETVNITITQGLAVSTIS

T5 sequence (A0A2K5U901 entry or part of it limits assumed): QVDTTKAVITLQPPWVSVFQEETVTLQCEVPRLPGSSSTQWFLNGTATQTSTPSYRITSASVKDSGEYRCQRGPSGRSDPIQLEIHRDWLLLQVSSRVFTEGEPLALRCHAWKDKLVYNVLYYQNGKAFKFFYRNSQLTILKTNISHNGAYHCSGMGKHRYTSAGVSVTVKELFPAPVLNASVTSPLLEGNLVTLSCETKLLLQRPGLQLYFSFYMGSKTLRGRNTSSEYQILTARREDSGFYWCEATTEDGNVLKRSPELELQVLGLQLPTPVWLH
T2 sequence (P08637 17-208 F176V limits assumed): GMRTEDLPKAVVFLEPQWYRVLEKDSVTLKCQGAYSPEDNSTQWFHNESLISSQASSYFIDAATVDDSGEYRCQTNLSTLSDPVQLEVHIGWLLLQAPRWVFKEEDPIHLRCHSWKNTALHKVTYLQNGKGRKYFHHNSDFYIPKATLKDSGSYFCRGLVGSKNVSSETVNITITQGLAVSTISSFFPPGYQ
T3 sequence (P08637 17-208 limits assumed): as the sequence (P08637 17-208 F176V limits assumed) above, with V160F counted along it
T4 sequence (Q8SPW2 17-208 limits assumed): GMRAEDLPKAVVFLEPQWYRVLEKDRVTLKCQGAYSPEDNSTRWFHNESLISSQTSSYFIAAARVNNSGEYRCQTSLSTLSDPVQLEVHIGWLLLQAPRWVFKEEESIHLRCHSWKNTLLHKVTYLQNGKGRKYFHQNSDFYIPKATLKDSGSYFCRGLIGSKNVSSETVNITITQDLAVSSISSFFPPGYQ
T8 sequence (O75015 17-200 limits assumed): as the sequence (O75015 17-200 limits assumed) above

B1: F3'-1602 TriNKET (bispecific antibody, human IgG1, kappa)
chain: QLQLQESGPGLVKPSETLSLTCTVSGFSLTNYGLHWIRQPPGKCLEWIGVIWSGGKTDYNPSLKSRVTISKDTSKNQFSLKLSSVQAADTAVYYCAKYDYDDSLDYWGQGTLVTVSSGGGGSGGGGSGGGGSGGGGSDIQMTQSPSSLSASVGDRVTITCHASQNINFWLSWYQQKPGKAPKLLIYEASNLHTGVPSRFSGSGSGTRFTLTISSLQPEDIATYYCQQSHSYPLTFGCGTKLEIKGSDKTHTCPPCPAPELLGGPSVFLFPPKPKDTLMISRTPEVTCVVVDVSHEDPEVKFNWYVDGVEVHNAKTKPREEQYNSTYRVVSVLTVLHQDWLNGKEYKCKVSNKALPAPIEKTISKAKGQPREPRVYTLPPCRDELTKNQVSLTCLVKGFYPSDIAVEWESNGQPENNYKTTPPVLVSDGSFTLYSKLTVDKSRWQQGNVFSCSVMHEALHNHYTQKSLSLSPG
heavy: EVQLVESGGGLVKPGGSLRLSCAASGFTFSSYSMNWVRQAPGKGLEWVSSISSSSSYIYYADSVKGRFTISRDNAKNSLYLQMNSLRAEDTAVYYCARGAPIGAAAGWFDPWGQGTLVTVSSASTKGPSVFPLAPSSKSTSGGTAALGCLVKDYFPEPVTVSWNSGALTSGVHTFPAVLQSSGLYSLSSVVTVPSSSLGTQTYICNVNHKPSNTKVDKKVEPKSCDKTHTCPPCPAPELLGGPSVFLFPPKPKDTLMISRTPEVTCVVVDVSHEDPEVKFNWYVDGVEVHNAKTKPREEQYNSTYRVVSVLTVLHQDWLNGKEYKCKVSNKALPAPIEKTISKAKGQPREPQVCTLPPSRDELTENQVSLTCLVKGFYPSDIAVEWESNGQPENNYKTTPPVLDSDGSFFLYSWLTVDKSRWQQGNVFSCSVMHEALHNHYTQKSLSLSPG
light: DIQMTQSPSSVSASVGDRVTITCRASQGISSWLAWYQQKPGKAPKLLIYAASSLQSGVPSRFSGSGSGTDFTLTISSLQPEDFATYYCQQGVSFPRTFGGGTKVEIKRTVAAPSVFIFPPSDEQLKSGTASVVCLLNNFYPREAKVQWKVDNALQSGNSQESVTEQDSKDSTYSLSSTLTLSKADYEKHKVYACEVTHQGLSSPVTKSFNRGEC
notes: Trispecific F3' format: CLEC12A scFv-Fc paired with NKG2D Fab-Fc; Stressed and control samples of the stability studies are the same molecule; also called AB0237
- Kd (mFc-hNKG2D [1]): 709 nM and 751 nM and 740 nM
- Kd (mFc-hNKG2D [2]): 711 nM

B2: AB0192 TriNKET (other)
chain: EVQLVESGGGVVQPGGSLRLSCAASGFTFNAFGMHWVRQAPGKCLEWVAFISSGSTSIYYANTVKGRFTISRDNSKNTLYLQMNSLRAEDTAVYYCARDGYPTGGAMDYWGQGTSVTVSSGGGGSGGGGSGGGGSGGGGSDIQMTQSPSSLSASVGDRVTITCKASQDIYNYLSWFQQKPGKAPKPLIYRANILVSGVPSRFSGSGSGQDYTFTISSLQPEDIATYYCLQFDAFPFTFGCGTKLEIKGSDKTHTCPPCPAPELLGGPSVFLFPPKPKDTLMISRTPEVTCVVVDVSHEDPEVKFNWYVDGVEVHNAKTKPREEQYNSTYRVVSVLTVLHQDWLNGKEYKCKVSNKALPAPIEKTISKAKGQPREPRVYTLPPCRDELTKNQVSLTCLVKGFYPSDIAVEWESNGQPENNYKTTPPVLVSDGSFTLYSKLTVDKSRWQQGNVFSCSVMHEALHNHYTQKSLSLSPG
heavy: B1 heavy
light: B1 light
notes: the condition stands under assay; also called AB0192 Lot AB0192-005
- Kd (Human CD16a V158): 178 nM
- Kd (Human CD16a F158): 680 nM
- Kd (Cynomolgus CD16): 204 nM
- Kd (Cynomolgus CD64): 1.9 nM
- Kd (Human CD32a R131): 1400 nM
- Kd (Human CD32b): 6060 nM
- Kd (Human CD16b): 6010 nM

B3: AB0089 TriNKET (bispecific antibody, human IgG1, kappa)
chain: B1 chain with S53V, K56A, K71V, Y98G, D101G, S103T, R207D, I220F
heavy: B1 heavy
light: B1 light
notes: F3' format heterodimer of three chains; human IgG1 Fc with EW-RVT and Y349C/S354C mutations; also called AB0089 Lot AB0089-002; CLEC12A TriNKET AB0089
- EC50, lysis of PL21 cells by NK cells, with sMIC-A-Fc [3]: 0.26 nM
- EC50, lysis of PL21 cells by NK cells, without sMIC-A-Fc [3]: 0.32 nM
- Kd [4]: 0.74 nM
- Kd [5]: 983 nM
- koff [5]: 0.127 s⁻¹
- kon [5]: 130000 M⁻¹ s⁻¹
- Kd [6]: 0.9 nM
- kon [7]: 1.11e+07 M⁻¹ s⁻¹

B4: F3'-1602 TriNKET (other)
chain: B1 chain
heavy: B1 heavy
light: B1 light
notes: CLEC12A scFv-Fc, NKG2D A49MI Fab-Fc, human IgG1 Fc; also called AB0237
- Kd [8]: 1.2 nM and 1.19 nM
- koff [8]: 0.000952 s⁻¹ and 0.000913 s⁻¹
- kon [8]: 791000 M⁻¹ s⁻¹ and 768000 M⁻¹ s⁻¹
- Kd (recombinant human CD16b): 7500 nM
